Reference: patent publication US20160083466A1 (Regeneron, published 2016)

T1: mouse IL-25 expressed with a C-terminal myc-myc-hexahistidine tag (mouse)
T1 construct: also called Mouse IL-25-MMH; mIL-25-MMH
T1 chain: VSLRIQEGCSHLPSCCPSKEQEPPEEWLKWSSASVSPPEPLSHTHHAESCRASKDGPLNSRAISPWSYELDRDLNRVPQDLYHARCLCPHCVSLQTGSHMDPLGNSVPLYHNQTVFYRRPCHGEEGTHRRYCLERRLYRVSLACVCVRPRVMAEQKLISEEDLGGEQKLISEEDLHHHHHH

T2: human IL-25 expressed with a C-terminal myc-myc-hexahistidine tag (human)
T2 construct: also called hIL-25-MMH; Human IL-25-MMH
T2 chain: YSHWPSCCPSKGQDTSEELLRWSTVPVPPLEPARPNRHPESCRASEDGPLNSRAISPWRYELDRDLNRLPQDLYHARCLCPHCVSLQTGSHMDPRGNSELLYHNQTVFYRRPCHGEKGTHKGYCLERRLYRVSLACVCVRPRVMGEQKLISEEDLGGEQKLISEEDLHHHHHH

T3: monkey IL-25 expressed with a C-terminal myc-myc-hexahistidine tag (M. fascicularis (cynomolgus monkey))
T3 construct: also called Monkey IL-25-MMH; MfIL-25-MMH
T3 chain: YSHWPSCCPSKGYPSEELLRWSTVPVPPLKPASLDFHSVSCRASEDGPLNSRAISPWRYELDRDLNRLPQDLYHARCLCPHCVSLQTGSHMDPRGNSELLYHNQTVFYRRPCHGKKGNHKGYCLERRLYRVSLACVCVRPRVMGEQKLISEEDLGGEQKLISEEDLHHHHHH

T4: rat IL-25 expressed with a C-terminal myc-myc-hexahistidine tag (rat)
T4 construct: also called Rat IL-25-MMH
T4 chain: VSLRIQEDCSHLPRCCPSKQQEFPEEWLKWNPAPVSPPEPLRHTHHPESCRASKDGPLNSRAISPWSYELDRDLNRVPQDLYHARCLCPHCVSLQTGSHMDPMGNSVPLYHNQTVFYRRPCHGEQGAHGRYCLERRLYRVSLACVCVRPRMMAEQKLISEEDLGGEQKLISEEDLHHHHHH


Key:
[1] = biological target: T1, mouse IL-25 expressed with a C-terminal …; experiment: SPR Biacore, antibody captured, 37C;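 as to 100 nM Monkey IL-25-MMH Bound (RU): biacore 4000 surface plasmon resonance biosensor measuring binding of IL-25-MMH to purified anti-IL-25 antibodies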;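 as to 100 nM Mouse IL-25-MMH Bound (RU): Real-time sensorgrams of IL-25-MMH binding to purified anti-IL-25 antibodies, rate constants obtained by fitting a 1:1 binding model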
Protocol: (§1) Equilibrium dissociation constants (KD values) for IL-25 binding to purified anti-IL-25 antibodies were determined using a real-time surface plasmon resonance biosensor assay on a Biacore 4000 instrument (GE Healthcare). […] All the IL-25 reagents were expressed with a C-terminal myc-myc-hexahistidine tag (referred to herein as “IL-25-MMH”). […] Kinetic association (kₐ) and dissociation (kd) rate constants were determined by fitting the real-time sensorgrams to a 1:1 binding model using Scrubber 2.0c curve fitting software.

[2] = biological target: T1, mouse IL-25 expressed with a C-terminal …; experiment: SPR Biacore, antibody captured, 25C;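 as to 100 nM Rat IL-25-MMH Bound (RU): purified anti-IL-25 antibodies were tested by real-time surface plasmon resonance on a Biacore 4000, with rate constants obtained from sensorgram fits to a 1:1 binding model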
Protocol: as §1

[3] = biological target: T2, human IL-25 expressed with a C-terminal …; experiment: competition ELISA, 2 nM hIL-25-MMH binding to coated hIL-17RB-hFc
Protocol: (§2) Data analysis was performed using a sigmoidal dose-response model within Prism™ software (GraphPad). […] The absorbance values of the wells containing the highest concentration for each antibody were used to determine the percent maximum blockade.

[4] = biological target: T2, human IL-25 expressed with a C-terminal …; experiment: competition ELISA, 2 nM hIL-25-MMH binding to coated hIL-17RB-hFc; (*) below theoretical bottom of the assay
Protocol: as §2

[5] = biological target: T3, monkey IL-25 expressed with a …; experiment: SPR Biacore, antibody captured, 37C;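 as to 100 nM Monkey IL-25-MMH Bound (RU): biacore 4000 surface plasmon resonance biosensor measuring binding of IL-25-MMH to purified anti-IL-25 antibodies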;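 as to 100 nM Mouse IL-25-MMH Bound (RU): Real-time sensorgrams of IL-25-MMH binding to purified anti-IL-25 antibodies, rate constants obtained by fitting a 1:1 binding model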
Protocol: as §1

[6] = biological target: T4, rat IL-25 expressed with a C-terminal …; experiment: SPR Biacore, antibody captured, 37C;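 as to 100 nM Monkey IL-25-MMH Bound (RU): biacore 4000 surface plasmon resonance biosensor measuring binding of IL-25-MMH to purified anti-IL-25 antibodies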;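 as to 100 nM Mouse IL-25-MMH Bound (RU): Real-time sensorgrams of IL-25-MMH binding to purified anti-IL-25 antibodies, rate constants obtained by fitting a 1:1 binding model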
[7] = biological target: T4, rat IL-25 expressed with a C-terminal …; experiment: SPR Biacore, antibody captured, 25C;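 as to 100 nM Rat IL-25-MMH Bound (RU): purified anti-IL-25 antibodies were tested by real-time surface plasmon resonance on a Biacore 4000, with rate constants obtained from sensorgram fits to a 1:1 binding model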
Protocol: as §1

[8] = biological target: T3, monkey IL-25 expressed with a …; experiment: cell-based or functional assay
[9] = biological target: T2, human IL-25 expressed with a C-terminal …; experiment: cell-based or functional assay
[10] = biological target: T2, human IL-25 expressed with a C-terminal …; experiment: BLI Octet, hIL-25-MMH captured on anti-Penta-His sensor, 25C
Protocol: Binding competition between anti-IL-25 monoclonal antibodies was determined using a real time, label-free bio-layer interferometry assay on an Octet QK384 biosensor (Pall ForteBio Corp.).
The biosensors were washed in HBST kinetics buffer in between every step of the experiment. The real-time binding response was monitored during the course of the experiment and the binding response at the end of every step was recorded.

| 100 nM Mouse IL-25-MMH Bound (RU) [1] | 100 nM Mouse IL-25-MMH Bound (RU) [2] | binding result [2] | % Maximum blocking of 200 nM antibody [3] | IC50 [4] | 100 nM Monkey IL-25-MMH Bound (RU) [5] | Kd [5] | koff [5] | kon [5] | t½ [5] | 100 nM Rat IL-25-MMH Bound (RU) [6] | 100 nM Rat IL-25-MMH Bound (RU) [7] | binding result [7] | IC50, luciferase reporter cells, 12 pM MfIL-25-MMH [8] | IC50, luciferase reporter cells, 5 pM hIL-25-MMH [9] | 50 ug/mL mAb-1 Binding (nm) [10] | Binder | also measured |
| --- | --- | --- | --- | --- | --- | --- | --- | --- | --- | --- | --- | --- | --- | --- | --- | --- | --- |
| 2 RU | 1 RU | no binding (tested: 100 nM) | 91% | 0.23 nM | 64 RU | 0.0464 nM | 0.000165 s⁻¹ | 3.55e+06 M⁻¹ s⁻¹ | 1.17 h | 1 RU | 0 RU | no binding (tested: 100 nM) | 3.8e-11 M | 5.6e-11 M | 0.67 nm | H4H10901P (antibody, human IgG4, V domains shown, H4H prefix = human IgG4 Fc) VH: QLQLQESGPGLVRPSETLSLTCSVSSGSIRSSNYYWGWIRQPPGKGLEWIGNIYYSGNTFYNPSLKGRVTISVDTSKNQFSLKLSSVTATDTAVYYCARQGYSDYELNWFDPWGQGTLVTVSS VL: DIVMTQSPDSLVLSLGERATFNCKSSQSVLDSSNNKNYLAWYQQKPGQPPKLLIYWASTRESGVPDRFSGSGSGTDFSLTISSLQAEDVALYYCQQFYNSPWTFGQGTKVEIK |  |
| 2 RU | -1 RU |  | 98% | 0.43 nM |  |  |  |  |  | 3 RU | 0 RU | no binding (tested: 100 nM) |  | 1.8e-09 M | 0.81 nm | H2aM11008N (antibody, V domains shown, also called H2M11008N) VH: QVQLQESGPGLVKPSETLSLTCTVSGGSISSHYWSWIRQPPGKGLEWIGFIYYSGSTNFNPSLKSRVTISIDTSKNQFSLKLSSVTAADTAVYYCARHDYNDYELNYFDLWGRGTLASVSS VL: not shown |  |
| 2 RU | 0 RU | no binding (tested: 100 nM) | 92% | 0.2 nM | 61 RU | 0.0236 nM | 7.14e-05 s⁻¹ | 3.03e+06 M⁻¹ s⁻¹ | 2.7 h | 2 RU | 0 RU | no binding (tested: 100 nM) | 3.7e-11 M | 6.3e-11 M | 0.88 nm | H4H10861P (antibody, human IgG4, V domains shown, H4H prefix = human IgG4 Fc) VH: QVQLQESGPGLVKPSETLSLTCTVSGASISNYYWSWIRQPPGKGLEWIGYIFYSGNTNYNPSLKSRVTISVDTSKNQFSLKLSSVTAADTAVYYCARVRFSDYELNWFDPWGQGTLVTVSS VL: DIVMTQSPDSLAVFLGERATINCRSSQSVFLGSNNKNYLAWYQQKPGQPPKLLIYWASSRESGVPDRFSGSGSGTDFTLTINSLQAEDVAVYYCQQYFITPLTFGGGTKVEIK |  |
| 8 RU | 10 RU |  | 87% | 0.55 nM | 50 RU | 0.0671 nM | 0.000101 s⁻¹ | 1.51e+06 M⁻¹ s⁻¹ | 1.9 h | 8 RU | 10 RU |  | 1.4e-10 M | 2.2e-10 M | 1.74 nm | H4H10907P (antibody, human IgG4, V domains shown, H4H prefix = human IgG4 Fc) VH: EVQLVESGGGLVQPGGSLRLSCAASGFTFSNYDIHWVRQVPGKGLEWISTIGSAGDTFYPGSVKGRFTISRENAKNSLYLQMNSLRAGDSAVYYCARGDNWNYVSWFFDLWGRGTLVTVSS VL: DIQLTQSPSFLSTSVGDRVTITCWASQDISSFLAWYQQKPGKAPKLLIYAASVLQSGVPSRFSGSGSGTEFTLTISSLQPEDFATYYCQQVNSYPITFGQGTRLEIK | Kd [1]: 137 nM; koff [1]: 0.0376 s⁻¹; kon [1]: 275000 M⁻¹ s⁻¹; t½ [1]: 18 s; Kd [2]: 58.7 nM; koff [2]: 0.0115 s⁻¹; kon [2]: 196000 M⁻¹ s⁻¹; t½ [2]: 1 min; Kd [6]: 85.4 nM; koff [6]: 0.0204 s⁻¹; kon [6]: 238000 M⁻¹ s⁻¹; t½ [6]: 36 s; Kd [7]: 66.9 nM; koff [7]: 0.0147 s⁻¹; kon [7]: 220000 M⁻¹ s⁻¹; t½ [7]: 48 s |
| 1 RU | 0 RU |  | 93% | 0.2 nM | 72 RU | 0.0239 nM | 4.18e-05 s⁻¹ | 1.75e+06 M⁻¹ s⁻¹ | 4.6 h | 0 RU | 0 RU |  | 3.9e-11 M | 1.4e-10 M | 0.7 nm | H4H10883P (antibody, human IgG4, V domains shown, H4H prefix = human IgG4 Fc) VH: QVQLQESGPGLVKSSETLSLTCTVSGGSISSYYWSWIRQPPGKGLEWIGFIYYSGSTNYNPSLKSRVTFSVDTSKNHFSLKLNSVTATDTAVYYCARHYFDSGTYELGPFDYWGQGTLVTVSS VL: DIVMTQSPDSLAVSLGERATINCKSSQNILLTSSNKNYLTWYQQKPGQPPKLLIYWASIRESGVPDRFSGSGSGTDFTLTISSLQAEDVALYFCQQYYITPFTFGPGTKVDIK |  |
| 2 RU | 0 RU | no binding (tested: 100 nM) | 89% | 0.24 nM | 70 RU | 0.0589 nM | 0.000172 s⁻¹ | 2.93e+06 M⁻¹ s⁻¹ | 1.12 h | 1 RU | 1 RU | no binding (tested: 100 nM) | 3.3e-11 M | 8.4e-11 M | 0.83 nm | H4H10862P (antibody, human IgG4, V domains shown, H4H prefix = human IgG4 Fc) VH: QVQLQESGPGLVKPSETLSLTCTVSGGSISSYFWSWIRQAPGKGLEWIGFIDYSGSTNYNPSLKSRVTISVDTSKNQFSLKLNSVTAADTAVYYCARQEIINFELNWFDPWGQGTLVTVSS VL: not shown |  |
| 1 RU | 0 RU | no binding (tested: 100 nM) | 91% | 0.24 nM | 66 RU | 0.0374 nM | 6.59e-05 s⁻¹ | 1.76e+06 M⁻¹ s⁻¹ | 2.92 h | 2 RU | 1 RU | no binding (tested: 100 nM) | 6e-11 M | 1.4e-10 M | 1.03 nm | H4H10903P (antibody, human IgG4, V domains shown, H4H prefix = human IgG4 Fc) VH: QVQLQESGPGLVKPSETLSLTCTVSGGSINSYSWTWIRQPPGKGLEWIGNIYNSENTNYNPSLKSRVTISVDTSKSQVSLKLNSVTAADTAVYYCARTYNWNYEIGAMGVWGQGTTVTVSS VL: not shown |  |
| 2 RU | 1 RU | no binding (tested: 100 nM) | 89% | 0.14 nM | 73 RU | 0.0431 nM | 0.00013 s⁻¹ | 3.01e+06 M⁻¹ s⁻¹ | 1.48 h | 3 RU | 2 RU | no binding (tested: 100 nM) | 4.7e-11 M |  | 0.88 nm | H4H10906P (antibody, human IgG4, V domains shown, H4H prefix = human IgG4 Fc) VH: QVQLQESGPGLVKPSETLSLTCTVSGGSISSYYWSWIRQPPGKGLEWIGFIYYSGSTNYNPSLKSRVTISVDTSKNQFSLKLSSVTAADTAVYYCARHDSDYELYGMDVWGQGTTVTVSS VL: not shown | IC50, luciferase reporter cells, 5 pM hIL-25-MMH (second assay day) [9]: 2.7e-11 M |
